Measurements as given in the supplement of paper PMC10567573.
± gives the standard deviation.

Test: protein stability index of a GFP-peptide fusion (GPS, HEK-293T) (PSI 1-6); higher = more stable
[1] = treatment: DMSO, c terminus: a fixed tail appended
[2] = treatment: MLN4924 1 uM, 8 h, c terminus: a fixed tail appended
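Further: 24-mer peptide tiles fused after GFP, lentivirally expressed, FACS-sorted into six equal bins by GFP/DsRed ratio, decoded by Illumina sequencing, PSI is the read-weighted mean bin number.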

Sequence	protein stability index [1]	protein stability index [2]	protein stability index (treatment: DMSO, c terminus: native)	protein stability index (treatment: MLN4924 1 uM, 8 h, c terminus: native)
TSCKLTDLRGVCVSGKCEPIGCDG [ADAMTSL2]	3.4 ± 0.12	3.28 ± 0.27	–	–
AALHIDLCKATSPADALQYLLQFA [INTS4]	2.36 ± 0.51	2.29 ± 0.15	–	–
QFCAQRFGRKDHLTRHTKKTHSQE [PLAGL1]	4.07 ± 0.43	4.18 ± 0.27	–	–
MRDLYMKNGQGFALVYSITAQSTF [RAP1B]	2.85 ± 0.79	2.78 ± 0.6	–	–
NGTAWTYHSQDELGGFSHWGRLTS [PKD2L1]	2.38 ± 0.4	2.6 ± 0.2	–	–
NGDLSRSLSPSPLGSSAASTALER [FCHO1]	4.78 ± 0.22	4.83 ± 0.37	–	–
DVRLDREHRVAGIFPRLSFKDKST [CLPTM1]	3.79 ± 0.063	4 ± 0.089	–	–
DKVLRFAQQIRLHHFNSSHLEIDD [MYORG]	2.93 ± 0.17	2.95 ± 0.23	–	–
EQPRLEFLMRKCGWFVRELRVEFA [FBXO33]	2.64 ± 0.34	2.12 ± 0.24	–	–
EVIEKPENDPEWWKCKNARGQVGL [NCK2]	4.28 ± 0.31	4.368 ± 0.038	–	–
QLHAKIDAAEEEKYDMEVRVQKTS [TNNI2]	5.27 ± 0.23	5.22 ± 0.24	–	–
GRECQPRWETSSWSECSRTCGEGY [ADAMTSL2]	3.78 ± 0.15	3.49 ± 0.092	–	–
TDDDGQAPEAKDGSSFSGRVFRVT [APMAP]	4.94 ± 0.24	4.74 ± 0.23	–	–
EDGFGEHPFYHCLVAEVPKEHWTP [SAT1]	3.05 ± 0.22	3.12 ± 0.27	–	–
VISCLEQGEEPWVQVSPEFKDSAG [ZNF75A]	4.59 ± 0.11	4.68 ± 0.13	–	–
MSSHLVEPPPPLHNNNNNCEENEQ [BNIP3L]	5.56 ± 0.11	5.67 ± 0.11	–	–
QQLVSFSESGSLGNSSGSDVTSLS [ISL2]	4.79 ± 0.19	4.72 ± 0.37	–	–
ESRRQQILREFEELHRRLDEEQQV [TRIM39]	4.87 ± 0.23	4.8 ± 0.097	–	–
EKELVFDIDMTDYDDVRRCCSSAD [PRIM1]	4.73 ± 0.27	4.7 ± 0.35	–	–
RWLPEKRANPCLSSSNEHAAPAAK [ELOA2]	4.25 ± 0.18	4.08 ± 0.16	–	–
SKLRNYRKDLAKLHREVRSTPLTA [VTI1B]	3 ± 0.25	3.26 ± 0.26	–	–
RCNTTCGRGVKKRLVLCMELANGK [ADAMTSL2]	3.22 ± 0.21	3 ± 0.13	–	–

Sequence	protein stability index [1]	protein stability index [2]	protein stability index (treatment: DMSO, c terminus: native)	protein stability index (treatment: MLN4924 1 uM, 8 h, c terminus: native)
KALGSDLDSSLASLVGNLGISGTT [SNAP91]	3.94 ± 0.2	3.93 ± 0.15	–	–
YGFSLKTVQGKKGVYMTDITPQGV [PDZK1]	–	2.5 ± 0.68	–	–
IVSHFQKLFDVPSLNGVYPRMNEV [CEP70]	2.46 ± 0.82	2.56 ± 0.53	–	–
FFFDRNPGAFGTILTFLRAGKLRL [KCNG1]	2.48 ± 1.3	2.07 ± 0.11	–	–
RLHLAFKRQVPREQAQAYAERLGV [RAB40A]	2.76 ± 0.16	3.12 ± 0.18	–	–
WVYKNKLIFFGGYGYLPEDKVLGT [KLHDC2]	2.55 ± 1.1	2.88 ± 1.4	–	–
YYHRGHVDPANDTFDIDPMVVTDC [MCOLN1]	3.63 ± 0.21	3.78 ± 0.14	–	–
QLENEQSQENSINPIQKEEDEGVD [SPANXN3]	5.56 ± 0.22	5.67 ± 0.2	–	–
LEPMKSRAPQLHLEYRFYEQLGSG [CSNK1G3]	2.91 ± 0.2	2.63 ± 0.47	–	–
FDVKNDRYIVNGSHEANKLQDMLD [EIF5]	3.97 ± 0.11	3.81 ± 0.25	–	–
YQRPQDSEDMWGDEDFTFGAYQPT [FBF1]	3.2 ± 0.55	3.76 ± 0.48	–	–
TILLSYGVILHSLKTQSLEGKRKA [OR4A15]	2.5 ± 0.082	2.41 ± 0.55	–	–
LRIPFPRDCGEEMQNGAGASRTST [TNXB]	4.02 ± 0.45	4.28 ± 0.79	–	–
QEPMVPAKLGTQAEKDRRLKKKHQ [PPFIA4]	5.32 ± 0.42	5.56 ± 0.11	–	–
HKIKHKHILAKNYFSQVPVLASFI [IQUB]	2.34 ± 0.37	2.32 ± 0.55	–	–
STYYWPRPRRYVQPPEMIGPMRPE [GAGE1]	2.68 ± 0.33	3.01 ± 0.31	–	–
IRTANCTTANQNCVNKSKLLTDV [KCNA1]	–	–	3.19 ± 0.13	3.35 ± 0.28
KVQTVIILGKVILWILHLLLECYI [TMEM192]	2.5 ± 0.62	2.35 ± 0.26	–	–
LSFSDALLSIIATVMILPVTHTEI [TMEM175]	3.15 ± 0.29	2.88 ± 0.58	–	–
LTFAKSSWARQESLQERKQALYEY [AUP1]	2.78 ± 0.43	2.67 ± 0.39	–	–
GLGGGSSRTSCRLSGGLGAGSCRL [KRT17]	2.41 ± 0.13	2.35 ± 0.41	–	–
NAGLSSTAGLLREQVAQLKQKVMT [JUNB]	3.42 ± 0.24	3.39 ± 0.42	–	–

Sequence	protein stability index [1]	protein stability index [2]	protein stability index (treatment: DMSO, c terminus: native)	protein stability index (treatment: MLN4924 1 uM, 8 h, c terminus: native)
EVNSAEELEGLIADPDEMRMQALL [FEM1C]	4.89 ± 0.16	5 ± 0.3	–	–
HFFGDKALKKRSGKKDKHSQSPRA [PBXIP1]	4.09 ± 0.36	4.33 ± 0.45	–	–
KSQDLAKIMADIRAQYDELARKNR [KRT18]	3.05 ± 0.41	3.29 ± 0.65	–	–
QRISCFQSTVKCLTVLQRLDVWLS [WDR41]	2.45 ± 0.35	2.41 ± 0.44	–	–
MAGLSKEPNTLRAPRVRTAFTMEQ [VENTX]	3.54 ± 0.28	3.75 ± 0.22	–	–
ATQTERRLDLAAVTLRRGLRSRAS [FAM189A2]	4.02 ± 0.24	4.41 ± 0.2	–	–
QGKYECVATNSAGTRYSAPANLYV [PTPRD]	2.9 ± 0.22	2.89 ± 0.64	–	–
QVERMREVNSRCYQPEPFACGIEH [FBXO34]	2.53 ± 0.3	2.43 ± 0.34	–	–
VSMETYHVTLTLPPTQLEVNLEEI [C2CD2L]	2.34 ± 0.35	2.27 ± 0.31	–	–
YDLWASDNPLDRPLVGQDEFFLEQ [NOP53]	4.31 ± 0.13	3.69 ± 0.43	–	–
WILLAESNSADDETDDPRRYQKYG [OAS1]	3.19 ± 0.17	3.32 ± 0.21	–	–
RAINLLFDIARIERCNQLLRALKL [ZER1]	1.82 ± 0.16	2.08 ± 0.32	–	–
QQFVIAGVLVEDSNNHHLMLEASE [ZBED1]	3.5 ± 0.36	3.57 ± 0.43	–	–
ITEALRPAGVGVVVEATHMCMVMR [GCH1]	2.11 ± 0.38	2.29 ± 0.33	–	–
MTLPLLRQTSTKAVQHFYNIKLEG [ESRRG]	2.48 ± 0.18	2.44 ± 0.26	–	–
LVLLIIIGIPLFFLELAVGQRIRR [SLC6A17]	3.2 ± 0.25	3.2 ± 0.5	–	–
SLNGPLSTSRHVMAPVMAHVDPEE [ADAMTS4]	4.5 ± 0.25	4.49 ± 0.25	–	–
QGDPAFPEMNGNGAVAPMDFTTAA [NOL4L]	5.09 ± 0.2	4.98 ± 0.16	–	–
PAYKVSGDKNEEQVLNAIEAYTEH [ZER1]	5.06 ± 0.17	5.02 ± 0.17	–	–
SEELLSLKYENDYPSVILRDPLQT [ETS1]	4.05 ± 0.14	4.14 ± 0.13	–	–
GNTAVSVLMLLVALLFTGIAVLGI [SCAMP3]	1.99 ± 0.37	1.96 ± 0.34	–	–
